In article PMC10641755, “Structural basis of aggregate binding by the AAA+ disaggregase ClpG” (The Journal of Biological Chemistry, 2023) one finds stimulation of ClpG ATPase activity by aggregated Luciferase and Kd data, which are given here for two molecules.

Assay [1] addresses Firefly Luciferase, heat-aggregated (Firefly) [luciferase: P08659].
In assay [2] the target is ClpG N1 core domain (N1∗), residues 1 to 46 (Pseudomonas aeruginosa, 15N (13C) isotope labelled for NMR). Nature of the assay: NMR titration; unlabeled peptide 134 titrated to 15N-labeled N1∗ (80 μM N1∗, up to 240 μM peptide), 1H,15N-HSQC chemical shift perturbations, 298 K, 50 mM NaH2PO4 pH 6.5, 50 mM KCl, 2 mM DTT. To be noted: both partners purified.

Firefly Luciferase, heat-aggregated (Firefly) [luciferase: P08659], sequence (P08659 whole entry, the tested form may be a part): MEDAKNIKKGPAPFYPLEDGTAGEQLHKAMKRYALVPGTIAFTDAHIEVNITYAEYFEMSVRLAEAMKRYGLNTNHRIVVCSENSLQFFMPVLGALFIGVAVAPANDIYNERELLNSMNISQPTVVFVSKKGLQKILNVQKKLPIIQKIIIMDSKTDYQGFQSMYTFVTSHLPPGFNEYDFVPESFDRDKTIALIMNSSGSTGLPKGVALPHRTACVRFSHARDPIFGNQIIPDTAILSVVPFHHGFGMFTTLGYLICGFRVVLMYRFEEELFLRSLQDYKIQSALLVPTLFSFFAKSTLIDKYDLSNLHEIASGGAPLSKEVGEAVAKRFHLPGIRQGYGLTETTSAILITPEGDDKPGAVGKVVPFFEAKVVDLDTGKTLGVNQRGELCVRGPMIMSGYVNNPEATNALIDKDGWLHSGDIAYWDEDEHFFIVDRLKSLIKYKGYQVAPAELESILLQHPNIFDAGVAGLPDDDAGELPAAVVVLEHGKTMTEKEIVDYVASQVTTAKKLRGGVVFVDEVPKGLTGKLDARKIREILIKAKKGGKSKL

Molecule ClpG WT (P. aeruginosa ClpGGI) (enzyme) displayed a stimulation of ClpG ATPase activity by aggregated Luciferase in assay [1] of 1.4 fold.

B1: Peptide 134 (peptide)
peptide: CWFLRYLKASKVPLN
notes: Unlabeled peptide
Consider B1, for which the Kd in assay [2] was more than 50 µM.
